Laboratory results as given in patent US20240417476A1 (ATYR PHARMA, published 2024).
Ends that are not written are not given here.

T1: NRP2b peptide (biotinylated) (human, biotin-conjugated, site not stated)
T1 construct: also called NRP2b isoform specific peptide
T1 peptide: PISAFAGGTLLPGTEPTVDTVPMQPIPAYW

T2: NRP2a_scan 3 peptide (biotinylated) (human, also: biotin-conjugated, site not given here)
T2 peptide: HEREGYEDEIDD

T3: NRP2a_scan 7 peptide (biotinylated) (human, also: biotin-conjugated, site not given here)
T3 peptide: EYEVDWSNSSSA

T4: NRP2a_scan 4 peptide (biotinylated) (human, also: biotin-conjugated, site not given here)
T4 peptide: EGYEDEIDDEYE

T5: NRP2a_scan 5 peptide (biotinylated) (human, also: biotin-conjugated, site not given here)
T5 peptide: EDEIDDEYEVDW

T6: Mid-NRP2A peptide (biotinylated) (human, biotin-conjugated, site not stated)
T6 peptide: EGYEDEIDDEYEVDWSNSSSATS

T7: NRP2a_scan 6 peptide (biotinylated) (human, also: biotin-conjugated, site not given here)
T7 peptide: IDDEYEVDWSNS

T8: NRP2a_scan 1 peptide (biotinylated) (human, also: biotin-conjugated, site not given here)
T8 peptide: VDIPEIHEREGY

T9: NRP2a_scan 2 peptide (biotinylated) (human, also: biotin-conjugated, site not given here)
T9 peptide: PEIHEREGYEDE

T10: NRP2v3
T10 construct: not the NanoLuc-tagged construct m33; also called human NRP2 v3 expressed on Expi293F cells; NRP2a v3
T10 chain: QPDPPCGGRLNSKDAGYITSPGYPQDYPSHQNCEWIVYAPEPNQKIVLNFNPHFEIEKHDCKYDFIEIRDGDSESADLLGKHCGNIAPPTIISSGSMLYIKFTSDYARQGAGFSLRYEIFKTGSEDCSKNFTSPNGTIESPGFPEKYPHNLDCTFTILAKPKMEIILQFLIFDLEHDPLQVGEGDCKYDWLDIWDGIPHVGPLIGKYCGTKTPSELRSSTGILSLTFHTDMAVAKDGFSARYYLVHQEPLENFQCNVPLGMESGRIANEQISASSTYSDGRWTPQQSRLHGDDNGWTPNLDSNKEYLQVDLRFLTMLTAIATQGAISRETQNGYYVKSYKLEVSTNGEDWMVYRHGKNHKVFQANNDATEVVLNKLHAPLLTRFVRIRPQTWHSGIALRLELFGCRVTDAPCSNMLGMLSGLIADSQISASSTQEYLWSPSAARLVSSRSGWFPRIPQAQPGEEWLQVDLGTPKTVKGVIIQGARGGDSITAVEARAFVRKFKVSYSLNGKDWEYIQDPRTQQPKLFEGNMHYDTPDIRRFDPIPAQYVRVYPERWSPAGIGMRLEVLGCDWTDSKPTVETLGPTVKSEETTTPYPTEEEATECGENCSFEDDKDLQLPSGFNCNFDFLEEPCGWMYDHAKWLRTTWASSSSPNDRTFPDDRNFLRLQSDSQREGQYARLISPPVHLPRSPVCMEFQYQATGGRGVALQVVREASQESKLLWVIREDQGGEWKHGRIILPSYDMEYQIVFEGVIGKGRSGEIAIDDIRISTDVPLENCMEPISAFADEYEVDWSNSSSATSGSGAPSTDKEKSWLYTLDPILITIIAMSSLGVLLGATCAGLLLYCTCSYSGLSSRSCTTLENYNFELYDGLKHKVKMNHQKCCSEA

T11: human NRP2b expressed on Expi293F cells (human)
T11 construct: also called full length NRP2b
T11 chain: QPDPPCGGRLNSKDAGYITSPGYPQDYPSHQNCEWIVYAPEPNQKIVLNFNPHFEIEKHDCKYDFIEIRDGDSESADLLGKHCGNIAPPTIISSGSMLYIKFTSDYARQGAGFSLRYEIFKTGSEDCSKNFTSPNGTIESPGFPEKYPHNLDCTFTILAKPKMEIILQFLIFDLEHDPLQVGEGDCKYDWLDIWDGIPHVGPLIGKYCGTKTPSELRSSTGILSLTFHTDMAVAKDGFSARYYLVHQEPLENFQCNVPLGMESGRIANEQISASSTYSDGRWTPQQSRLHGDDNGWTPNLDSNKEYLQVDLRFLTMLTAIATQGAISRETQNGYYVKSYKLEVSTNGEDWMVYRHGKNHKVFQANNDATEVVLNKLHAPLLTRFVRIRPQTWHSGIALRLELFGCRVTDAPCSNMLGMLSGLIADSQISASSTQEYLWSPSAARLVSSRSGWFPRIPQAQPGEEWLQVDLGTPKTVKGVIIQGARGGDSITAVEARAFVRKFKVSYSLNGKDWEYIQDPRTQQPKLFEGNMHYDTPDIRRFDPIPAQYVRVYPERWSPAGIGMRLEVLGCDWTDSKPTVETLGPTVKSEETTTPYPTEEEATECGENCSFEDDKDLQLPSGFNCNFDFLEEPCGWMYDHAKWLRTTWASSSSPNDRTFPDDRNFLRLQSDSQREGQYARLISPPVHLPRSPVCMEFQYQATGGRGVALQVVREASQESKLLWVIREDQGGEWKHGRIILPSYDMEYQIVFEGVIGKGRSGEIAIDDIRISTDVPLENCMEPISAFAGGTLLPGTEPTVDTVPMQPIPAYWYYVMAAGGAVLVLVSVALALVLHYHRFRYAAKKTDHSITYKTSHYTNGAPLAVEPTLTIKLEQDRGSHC

T12: Mid-mNRP2A peptide (biotinylated) (mouse, biotin-conjugated, site not stated)
T12 peptide: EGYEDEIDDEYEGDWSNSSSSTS


How the values were obtained:
[1] = target: T1, NRP2b peptide (biotinylated); assay: peptide ELISA
[2] = target: T13, Human NRP2a v2 (926aa) in pBiT2.1-C with C-terminal split NanoLuc tag, expressed in Expi293 cells (human, UniProt O60462 23-931); assay: CCL21-induced NRP2a/CCR7 receptor dimerization (NanoBiT, Example 7); mark beside the epitope box
T13 construct: cDNA Origene RCC220706, isoform 2; also called pBiT2.1-C-NRP2v2 (isoform 2); NRP2 v2; not shown: vector-encoded spacer and small split NanoLuc fragment (pBiT2.1-C)

[3] = target: T2, NRP2a_scan 3 peptide (biotinylated); assay: BLI, peptide on sensor;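 also: octet RED96e biolayer interferometry with biotin-conjugated NRP2 peptides spanning isoform-specific regions (human and mouse) loaded on biosensors, antibodies applied at 50 nM, association read over 300 s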
Method: (§1) Biolayer interferometry (BLI) experiments were carried out on an Octet RED96e instrument (Sartorius) to further characterize antibody affinities to the NRP2 peptides screened above. Antibodies were epitope mapped using peptides that span the NRP2a isoform specific region; antibodies were also tested for reactivity to an NRP2b isoform specific peptide and cross-reactivity to mNRP2a and mNRP2b peptides (see Table E2 for peptide sequences).
(§2) Antibodies and peptides were diluted in 1×PBS, 0.1% BSA, 0.02% Tween 20, pH 7.4. […] The biosensors were then dipped into 50 nM solutions of each antibody and read for 300s. The biosensors were regenerated in 10 mM glycine, pH 1.5 in between cycles of different antibodies.

[4] = target: T3, NRP2a_scan 7 peptide (biotinylated); assay: BLI, peptide on sensor;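 also: octet RED96e biolayer interferometry with biotin-conjugated NRP2 peptides spanning isoform-specific regions (human and mouse) loaded on biosensors, antibodies applied at 50 nM, association read over 300 s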
Method: as §1, §2

[5] = target: T4, NRP2a_scan 4 peptide (biotinylated); assay: BLI, peptide on sensor;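 also: octet RED96e biolayer interferometry with biotin-conjugated NRP2 peptides spanning isoform-specific regions (human and mouse) loaded on biosensors, antibodies applied at 50 nM, association read over 300 s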
Method: as §1, §2

[6] = target: T5, NRP2a_scan 5 peptide (biotinylated); assay: BLI, peptide on sensor;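 also: octet RED96e biolayer interferometry with biotin-conjugated NRP2 peptides spanning isoform-specific regions (human and mouse) loaded on biosensors, antibodies applied at 50 nM, association read over 300 s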
Method: as §1, §2

[7] = target: mNRP2b peptide (biotinylated) (mouse, biotin-conjugated, site not stated); assay: BLI, peptide on sensor
Chain of mNRP2b peptide (biotinylated) (mouse, biotin-conjugated, site not stated) (peptide, as listed by the source): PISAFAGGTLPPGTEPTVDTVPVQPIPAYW

[8] = target: T6, Mid-NRP2A peptide (biotinylated); assay: BLI, peptide on sensor
Method: as §1, §2

[9] = target: T7, NRP2a_scan 6 peptide (biotinylated); assay: BLI, peptide on sensor
Method: as §1, §2

[10] = target: T14, NRP2A peptide (biotinylated) (human, biotin-conjugated, site not stated); assay: BLI, isoform peptide on sensor, 50 nM antibody
T14 construct: also called NPR2A; NRP2a specific peptide

[11] = target: T15, Short NRP2A peptide (biotinylated) (human, biotin-conjugated, site not stated); assay: BLI, peptide on sensor, 50 nM antibody
[12] = target: T8, NRP2a_scan 1 peptide (biotinylated); assay: BLI, peptide on sensor, 50 nM antibody
[13] = target: T9, NRP2a_scan 2 peptide (biotinylated); assay: BLI, peptide on sensor, 50 nM antibody
NRP2v3 = target: T10, NRP2v3; assay: flow cytometry, Expi293F cells transfected with the target, fluorescent anti-mouse secondary; MFI signal relative to mock-transfected cells
Method: (§3) Signal to noise was calculated as the staining intensity of transfected cells compared to an un-transfected ‘mock’ population.

[14] = target: T11, human NRP2b expressed on Expi293F cells; assay: as above
Method: as §3

[15] = target: T1, NRP2b peptide (biotinylated); assay: BLI, peptide on sensor
Method: as §1, §2

[16] = target: T15, Short NRP2A peptide (biotinylated); assay: BLI, peptide on sensor
Method: as §1, §2

[17] = target: T8, NRP2a_scan 1 peptide (biotinylated); assay: BLI, peptide on sensor
Method: as §1, §2

[18] = target: T9, NRP2a_scan 2 peptide (biotinylated); assay: BLI, peptide on sensor
Method: as §1, §2

[19] = target: T5, NRP2a_scan 5 peptide (biotinylated); assay: BLI, peptide on sensor, 50 nM antibody
[20] = target: T6, Mid-NRP2A peptide (biotinylated); assay: BLI, peptide on sensor, 50 nM antibody
[21] = target: T12, Mid-mNRP2A peptide (biotinylated); assay: BLI, peptide on sensor, 50 nM antibody
[22] = target: T7, NRP2a_scan 6 peptide (biotinylated); assay: BLI, peptide on sensor, 50 nM antibody
[23] = target: T16, mNRP2A peptide (biotinylated) (mouse, biotin-conjugated, site not stated); assay: BLI, peptide on sensor, 50 nM antibody
T16 construct: also called mouse NRP2 isoform a peptide

[24] = target: T8, NRP2a_scan 1 peptide (biotinylated); assay: peptide ELISA
[25] = target: T1, NRP2b peptide (biotinylated); assay: BLI, peptide on sensor
[26] = target: T16, mNRP2A peptide (biotinylated); assay: BLI, peptide on sensor
[27] = target: T12, Mid-mNRP2A peptide (biotinylated); assay: BLI, peptide on sensor
Method: as §1, §2

blocks receptor dimerization [2]	binding result [3]	binding result [4]	binding result [5]	binding result [6]	binding result [7]	binding result [8]	binding result [9]	binding result [10]	binding result [11]	binding result (NRP2v3)	binding result [14]	binding result [18]	Binder	also measured
< 50%	no binding (tested: 50 nM)	no binding (tested: 50 nM)	no binding (tested: 50 nM)	no binding (tested: 50 nM)	no binding (tested: 50 nM)	no binding (tested: 50 nM)	no binding (tested: 50 nM)	binds	binds	no binding	no binding	–	aNRP2-404v2 (antibody, V domains shown, Mouse monoclonal) VH: EVQLQQSGPELVKPGASVKISCKASGYTFTDYNMHWVKQSHGKSLEWIGYIYPYNGDSGYNQRFKSEATLTVDISSSTAYMELRSLTSDDSAVYYCARLGRGYWGQGTTLTVSS VL: not shown	binding result [1]: no binding (tested: <3x blank); binding result [12]: binds; binding result [13]: binds
–	no binding (tested: 50 nM)	no binding (tested: 50 nM)	no binding (tested: 50 nM)	–	no binding (tested: 50 nM)	–	–	binds	–	–	–	no binding (tested: 50 nM)	aNRP2-401v2 (antibody, V domains shown, Mouse monoclonal) VH: EVQLQESGGGLVKPGGSLKLSCAASGFTFSDYGMHWVRQAPEKGLEWVATISRDINTVYYADTVKGRFTISRDNAKNTLFLQVTSLRSEDTAMYYCTRGGYTDYWGQGTTLTVSS VL: DIVMTQTPLSLPVSLGDQASISCRSSQSLVHSNGNTYLYWYLQRPGQSPKLLIYKVSNRFSGVPDRFSGSGSGTDFTLKISRVEAEDLGVYFCSQSTHVLTFGGGTKLEIK	binding result [15]: no binding (tested: 50 nM); binding result [16]: no binding (tested: 50 nM); binding result [17]: no binding (tested: 50 nM); binding result [19]: binds; binding result [20]: binds; binding result [21]: binds; binding result [22]: binds; binding result [23]: binds
> 50%	no binding (tested: 50 nM)	no binding (tested: 50 nM)	no binding (tested: 50 nM)	no binding (tested: 50 nM)	no binding (tested: 50 nM)	no binding (tested: 50 nM)	no binding (tested: 50 nM)	binds	binds	no binding	no binding	no binding (tested: 50 nM)	aNRP2-400v2 (antibody, V domains shown, Mouse monoclonal) VH: EVQLQESGAELARPGASVKLSCKASGYTFRSYGISWVKQRTGQGLEWIGEIYPRSGNTYYDENFKGRATLTADKSSSTAFMELRSLTSEDSAVYFCARSSITAVVAIPYYYAMDYWGQGTSVTVSS VL: DIQMTQTTSSLSASLGDRVTISCSASQGISNYLNWYQQKPDGSVKLLIYYTSSLHSGVPSRFSGSGSGTDYSLTISNLEPEDIATYYCQQYSKLPHTFGGGTKLELK	binding result [24]: binds; binding result [25]: no binding (tested: 50 nM); binding result [26]: no binding (tested: 50 nM); binding result [27]: no binding (tested: 50 nM)
